Assay results taken from PMC9929924, “Phosphorylation of the receptor protein Pex5p modulates import of proteins into peroxisomes” (Biological Chemistry, 2022).

What was measured:
[1] = Thermal unfolding by circular dichroism and nano-differential scanning fluorimetry; format: physicochemical; settings: circular dichroism thermal ramping (20-70 °C, 220 nm) and nanoDSF (0.35 mg ml^−1, 1 °C min^−1); 25 mM phosphate pH 7.5, 150 mM NaF; triplicates
Experimental: Thermal unfolding coupled to CD was performed between 20 °C and 70 °C with a measure in triplicate every 5 °C increment. Millidegree values at 220 nm were plotted against their temperature and the melting temperature calculated using a Boltzmann sigmoidal equation.
Melting temperatures were measured by Nano differential scanning fluorimetry using a Prometheus NT.48 (Nanotemper). Tryptophan intrinsic fluorescence emission was recorded at 330 and 350 nm with 30% excitation power during thermal ramping from 20 to 90 °C (1 °C min^−1). 10 μl of proteins in 25 mM phosphate buffer (pH 7.5), 150 mM NaF and at a concentration of 0.35 mg ml^−1 were loaded in nanoDSF grade standard capillaries. Samples were measured in triplicates and the calculated melting temperatures averaged. Melting temperature were calculated by the software PR.ThermControl.

[2] = test system: GFP-SKL import in pex5Δ yeast cells; test: Fluorescence microscopy, import of GFP-SKL in cells expressing Pex5p variants; format: cell-based, S. cerevisiae; settings: pex5Δ cells expressing plasmid-encoded Pex5p variant and GFP-SKL, grown in oleate
Experimental: Cells expressing distinct Pex5p variants (wildtype, Pex5p^2A or Pex5p^2D) and GFP-SKL were grown overnight in 50 ml YNO medium supplemented with 0.1% (w/v) glucose to an OD600 of 1–1.5. Aliquots of 5.4 ml were taken and formaldehyde was added to a final concentration of 3.7% (v/v). Samples were incubated for 10 min at RT with slight agitation. Cells were collected by centrifugation (5 min at 2000 g), resuspended in 1 ml of 0.1 M potassium phosphate buffer (pH 6.8) containing 3.7% (v/v) formaldehyde and incubated for 1 h at RT with slight agitation. Following centrifugation (30 s at 16,000 g), cells were resuspended in 1 ml of 0.1 M potassium phosphate buffer (pH 6.8) containing 10 mM ethanolamine and incubated for further 10 min at RT. Subsequently, cells were washed twice with phosphate-buffered saline (PBS) and resuspended in 10–20 µl of PBS containing 0.1% (v/v) Triton X-100. Fixed cells were analyzed within 48 h after preparation.
Fluorescence microscopy was performed using a Zeiss Axio Observer.Z1 microscope equipped with an alpha Plan-Aprochromat 100× objective and an AxioCam MR R3. GFP signal was visualized with a 38 HE filterset from Zeiss. Images were processed using Adobe Photoshop CS5 (version 12.0.4 ×64; Adobe Systems Incorporated). To document the structural integrity of cells, bright field images were acquired, adjusted in a way that only the cell boundaries were visible and subsequently added into the blue channel in Photoshop as reported before ([Motley and Hettema 2007]).

yeast cells = test: Growth of yeast cells expressing Pex5p variants; format: cell-based, S. cerevisiae; settings: n = 3; for growth in oleate: oleate as sole carbon source (YNO medium)
From the text: Synthetic complete (SC) medium consisted of 0.17% (w/v) yeast nitrogen base (YNB) without amino acids, 0.5% (w/v) ammonium sulfate, and 0.3% (w/v) glucose (pH 6.0) supplemented with appropriate amino acids ([Schummer et al. 2017]). YNO medium contained 0.1% (v/v) oleic acid, 0.05% (v/v) Tween 40, 0.5% (w/v) ammonium sulfate, and 0.17% (w/v) yeast nitrogen base without amino acids, adjusted to pH 6.0 and supplemented with appropriate amino acids. For growth under peroxisome-proliferating conditions, cells were cultured at 30 °C in SC medium until they reached an optical density at 600 nm (OD600) of 1–1.5 and then shifted to YNO medium to induce peroxisome proliferation. Cells were grown for further 12–16 h or as indicated. For growth of cells in glucose medium, SC medium was supplemented with 2% (w/v) glucose.

[3] = Circular dichroism, folding of Pex5p variants; format: physicochemical; settings: far-UV CD; 25 mM phosphate buffer pH 7.5, 150 mM NaF; 0.2 mg ml^−1
Experimental: Circular dichroism (CD) experiments were performed on a J-810 spectropolarimeter (Jasco). Proteins were dialyzed against 25 mM phosphate buffer (pH 7.5), 150 mM NaF. Far-UV spectra were recorded between 180 and 280 nm, using a 1-mm cuvette and a concentration of 0.2 mg ml^−1 protein. The machine settings were 1 nm bandwidth, 1 s response, 1 nm data pitch and 100 nm min^−1 scan speed.

[4] = test system: docking complex (Pex14p/Pex17p/Pex13p); test: Association of Pex5p variants with the peroxisomal docking complex; format: binding, S. cerevisiae; settings: TPA-tagged Pex5p variants, digitonin-solubilized membrane fractions; immunoblot
Experimental: Pex5p was affinity-purified from crude membrane and cytosolic fractions prepared from oleic acid-induced cells expressing TPA-tagged Pex5p as described before with slight modifications ([Agne et al. 2003]; [Schafer et al. 2004]). In brief, cytosolic and membrane fractions were prepared as described above using lysis buffer containing 10% (v/v) glycerol. For the analysis of Pex5p phosphorylation sites, crude membrane fractions were resuspended in glycerol-containing lysis buffer, the protein concentration was adjusted to 5 mg ml^−1, and proteins were solubilized using 1% (v/v) Triton X-100. Unsolubilized material was removed by centrifugation (100,000 g, 1 h, 4 °C). The cleared detergent extracts as well as cytosolic fractions were subjected to affinity purification via IgG Sepharose. Proteins bound to the matrix were eluted by incubation with AcTEV protease (Thermo Fisher Scientific/Invitrogen) followed by addition of Ni-NTA agarose to remove the His-tagged TEV protease. Eluted proteins were collected by centrifugation and precipitated by adding the fivefold volume of ice-cold acetone followed by incubation at −20 °C for at least 1 h. […]
Immunoblot analyses were performed according to standard procedures. […] Quantification of immunoblot signals (Supplementary Figure 1E; n = 3) was performed using the software Image Studio Lite (LI-COR Biosciences).

B1: Pex5p^WT: Pex5p wildtype, PTS1 receptor of S. cerevisiae (protein)
chain: MDVGSCSVGNNPLAQLHKHTQQNKSLQFNQKNNGRLNESPLQGTNKPGISEAFISNVNAISQENMANMQRFINGEPLIDDKRRMEIGPSSGRLPPFSNVHSLQTSANPTQIKGVNDISHWSQEFQGSNSIQNRNADTGNSEKAWQRGSTTASSRFQYPNTMMNNYAYASMNSLSGSRLQSPAFMNQQQSGRSKEGVNEQEQQPWTDQFEKLEKEVSENLDINDEIEKEENVSEVEQNKPETVEKEEGVYGDQYQSDFQEVWDSIHKDAEEVLPSELVNDDLNLGEDYLKYLGGRVNGNIEYAFQSNNEYFNNPNAYKIGCLLMENGAKLSEAALAFEAAVKEKPDHVDAWLRLGLVQTQNEKELNGISALEECLKLDPKNLEAMKTLAISYINEGYDMSAFTMLDKWAETKYPEIWSRIKQQDDKFQKEKGFTHIDMNAHITKQFLQLANNLSTIDPEIQLCLGLLFYTKDDFDKTIDCFESALRVNPNDELMWNRLGASLANSNRSEEAIQAYHRALQLKPSFVRARYNLAVSSMNIGCFKEAAGYLLSVLSMHEVNTNNKKGDVGSLLNTYNDTVIETLKRVFIAMNRDDLLQEVKPGMDLKRFKGEFSF
modifications: left off: His6, N-terminal, state not stated
notes: Pex5p wildtype, PTS1 receptor of S. cerevisiae
- melting temperature [1]: approximately 46 °C
- subcellular distribution of GFP-SKL [2]: import of GFP-SKL is restored
- subcellular distribution of GFP-SKL ([2]; listed as Pex5p^2A): no import phenotype
- subcellular distribution of GFP-SKL ([2]; listed as Pex5p^2D): both a punctate staining and diffuse cytosolic fluorescence, suggesting a reduced import of GFP-SKL into peroxisomes
- growth on glucose (yeast cells; SC medium containing 2% glucose, compared to Pex5p^WT cells): equivalent to Pex5p^WT cells
- growth in oleate (yeast cells; listed as Pex5p^2A): grew similar to wildtype cells in oleate
- growth in oleate (yeast cells; listed as Pex5p^2D): significant growth defect
- folding [3]: folded with no major structural changes
- composition of docking complex and abundance of individual proteins [4]: comparable irrespective of the Pex5p variant expressed
